{
  "source": "paper PMC8346945",
  "about": "“Evaluation of efficacy- versus affinity-driven agonism with biased GLP-1R ligands P5 and exendin-F1” (Biochemical Pharmacology, 2021)",
  "biological_target": "SNAP-GLP-1R (glucagon-like peptide-1 receptor with an N-terminal SNAP-tag), stably expressed in HEK293 cells (UniProt P43220)",
  "sequence (P43220 24-463)": "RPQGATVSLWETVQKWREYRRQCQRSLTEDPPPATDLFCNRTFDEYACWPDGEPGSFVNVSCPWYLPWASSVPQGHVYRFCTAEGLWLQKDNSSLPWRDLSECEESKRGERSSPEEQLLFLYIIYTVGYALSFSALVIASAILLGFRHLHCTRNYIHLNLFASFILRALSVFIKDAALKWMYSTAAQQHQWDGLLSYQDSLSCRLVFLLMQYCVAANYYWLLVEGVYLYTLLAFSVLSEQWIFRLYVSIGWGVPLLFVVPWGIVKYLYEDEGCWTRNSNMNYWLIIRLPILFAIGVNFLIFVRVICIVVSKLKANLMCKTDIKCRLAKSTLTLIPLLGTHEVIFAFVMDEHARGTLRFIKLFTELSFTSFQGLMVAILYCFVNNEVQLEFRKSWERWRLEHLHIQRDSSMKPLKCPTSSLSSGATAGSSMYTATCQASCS",
  "data": [
    {"substance": "Exendin-4 (from UniProt P26349 48-87) (peptide)", "values": [
      {"measurement": "cAMP production in HEK293-SNAP-GLP-1R cells, 30-min stimulation, pEC50", "value": "9.9 pEC50 (M)"}
    ]}
  ]
}
